Assay results taken from patent US20240082183A1, “METHODS FOR PREVENTING OR TREATING CONDITIONS RELATED TO T CELL MEDIATED INTESTINAL DISORDERS” (The Regents of the University of Michigan, priority 2021, published 2024).

T1: Recombinant SDHB (Mus musculus, UniProt Q9CQA3)
T1 construct: purchased LSBio LS-G26026
T1 sequence (Q9CQA3 31-282): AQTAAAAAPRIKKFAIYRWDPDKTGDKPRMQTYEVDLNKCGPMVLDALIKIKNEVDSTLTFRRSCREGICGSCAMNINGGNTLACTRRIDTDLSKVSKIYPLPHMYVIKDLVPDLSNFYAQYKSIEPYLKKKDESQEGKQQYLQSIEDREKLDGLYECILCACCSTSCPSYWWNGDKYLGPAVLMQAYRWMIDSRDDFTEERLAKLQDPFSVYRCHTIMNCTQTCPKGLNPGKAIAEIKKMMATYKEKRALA


Legend:
Recombinant SDHB = biological target: T1, Recombinant SDHB; assay: SDHA cleavage assay, cell free, recombinant SDHB control; format: biochemical; conditions: 90 minutes
Experimental: (§1) SDHA cleavage assay: 75 ug Isolated mitochondria in 25 ul EDB buffer (10 mM HEPES, 50 mM NaCl, 2 mM MgCl2, 5 mM EGTA and 1 mM DTT) were incubated with 75 ng mouse Granzyme B at 37 degrees and then separated by SDS-PAGE^70. Mouse recombinant SDHA protein with His Tag (LS-G26030, LSBio, Seattle, WA) and mouse recombinant SDHB protein with His Tag (LS-G26026, LSBio) in EDB buffer (25 ug in 8.3 ul) were incubated with 25 ng mouse Granzyme B at 37 degrees for 90 minutes. Proteins were then separated by SDS-PAGE and blotted with anti-His Tag antibody (LS-C60077, 1:1000, LSBio) and anti-SDHA (#ab139181, 1:1000, Abcam).

mutated SDHA protein = biological target: T2, mutated SDHA protein (Mus musculus, UniProt Q8K2B3, D241A); assay: GzmB treatment of SDHA mutated at the putative cleavage site; format: biochemical; conditions: 6 hours
T2 construct: host or cells: E. coli BL21 Star (DE3)
Experimental: Generation of normal SDHA protein and mutated SDHA protein: Target DNA sequence of mouse normal SDHA and mutated SDHA was optimized and synthesized (GenScript). The synthesized sequence was cloned into vector pET-30a(+) with His tag for protein expression in E. coli. E. coli strain BL21 Star™(DE3) was transformed with recombinant plasmid. A single colony was inoculated into LB medium containing related antibiotic; culture was incubated in 37° C. at 200 rpm and then induced with IPTG. SDS-PAGE was used to monitor the expression. Recombinant BL21 Star™ (DE3) stored in glycerol was inoculated into TB medium containing related antibiotic and cultured at 37° C. When the OD600 reached about 1.2, cell culture was induced with IPTG at 15° C./16 h. Cells were harvested by centrifugation. Cell pellets were resuspended with lysis buffer followed by sonication. The precipitate after centrifugation was dissolved using denaturing agent. Target protein was obtained by one-step purification using Ni column. Target protein was sterilized by 0.22 μm filter before stored in aliquots. The concentration was determined by Bradford protein assay with BSA as standard. The protein purity and molecular weight were determined by standard SDS-PAGE along with Western blot confirmation. […]

SDHA [1] = biological target: T3, SDHA (Mus musculus, UniProt Q8K2B3); assay: SDHA cleavage assay, cell free, recombinant SDHA; format: biochemical; set-up: purchased LSBio LS-G26030; conditions: 90 minutes
Experimental: as §1

SDHA [2] = biological target: T3, SDHA; assay: SDHA cleavage assay, isolated mitochondria from IECs; format: biochemical; set-up: 75 ug Isolated mitochondria in 25 ul EDB buffer; from tissue; host or cells: mitochondria isolated from mouse intestinal epithelial cells; conditions: ex vivo
Experimental: as §1

[3] = system: primary colonic epithelial cells (PCECs); assay: Apoptosis of pre-treated PCECs induced by perforin and Granzyme B; format: cell-based, C57BL/6 mice; conditions: pre-treated 2 hours, then perforin and Granzyme B 4 hours
Experimental: Cell culture: C57BL/6 primary colonic epithelial cells (PCEC, C57-6047, Cell Biologics, Chicago, IL) were cultured in compete epithelial growth medium supplemented with insulin-transferrin-selenium, epidermal growth factor, glutamine, antibiotics, antimycotics and fecal bovine serum (#M6621, Cell Biologics). Cells were routinely tested for mycoplasma contamination using MycoAlert (#LT07-318, Lonza, Switzerland). Cells were treated with Mouse active perforin (#APB317Mu01, Cloud-Clone Corp., Katy, TX) and recombinant mouse Granzyme B (#140-03, PeproTech, Rocky Hill, NJ) for 4 to 6 hours in indicated concentrations following manufacturer's recommendations. Cells were incubated with GDF-15 (#8944-GD-025, 500 pg/mL, R&D Systems, Minneapolis, MN), Tiron (#172553, 10 mM, Sigma-Aldrich, St. Louis, MO), Trolox (#648471, 0.5 mM, Sigma-Aldrich), 4-Octyl itaconate (#SML2338, 0.1 mM, Sigma-Aldrich) and NAD (#N8285, 1 mM, Sigma-Aldrich).

T3 sequence (Q8K2B3 43-664): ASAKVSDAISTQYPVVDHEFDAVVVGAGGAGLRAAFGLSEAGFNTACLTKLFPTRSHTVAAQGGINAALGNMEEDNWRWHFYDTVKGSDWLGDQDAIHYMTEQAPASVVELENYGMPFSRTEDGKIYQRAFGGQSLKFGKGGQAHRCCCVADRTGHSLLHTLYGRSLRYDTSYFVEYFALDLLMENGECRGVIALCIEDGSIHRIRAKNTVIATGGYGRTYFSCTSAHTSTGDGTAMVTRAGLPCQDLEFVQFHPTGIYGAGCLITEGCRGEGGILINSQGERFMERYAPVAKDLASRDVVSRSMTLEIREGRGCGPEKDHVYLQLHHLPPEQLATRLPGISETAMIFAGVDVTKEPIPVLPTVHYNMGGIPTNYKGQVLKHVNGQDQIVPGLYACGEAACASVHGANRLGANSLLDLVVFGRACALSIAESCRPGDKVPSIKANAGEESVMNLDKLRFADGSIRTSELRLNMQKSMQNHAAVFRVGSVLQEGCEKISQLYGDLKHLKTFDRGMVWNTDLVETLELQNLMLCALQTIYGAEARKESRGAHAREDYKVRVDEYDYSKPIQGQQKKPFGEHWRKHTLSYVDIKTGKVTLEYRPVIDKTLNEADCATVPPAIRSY
T2 sequence (Q8K2B3 43-664 D241A): as the sequence (Q8K2B3 43-664) above, with D199A counted along it

Molecule	proteolysis of recombinant SDHB (Recombinant SDHB)	proteolysis of mutated SDHA (Ile-Glu-Asp-Gly to Ile-Glu-Ala-Gly) (mutated SDHA protein)	proteolysis of recombinant SDHA (SDHA [1])	proteolysis of SDHA in isolated mitochondria (SDHA [2])	apoptosis of PCECs induced by GranzymeB and perforin [3]
GzmB: recombinant mouse Granzyme B (protein) IIGGHEVKPHSRPYMALLSIKDQQPEAICGGFLIREDFVLTAAHCEGSIINVTLGAHNIKEQEKTQQVIPMVKCIPHPDYNPKTFSNDIMLLKLKSKAKRTRAVRPLNLPRRNVNVKPGDVCYVAGWGRMAPMGKYSNTLQEVELTVQKDRECESYFKNRYNKTNQICAGDPKTKRASFRGDSGGPLVCKKVAAGIVSYGYKDGSPPRAFTKVSSFLSWIKKTMKSS	not SDHB	prevented proteolysis	direct proteolysis	caused proteolysis of SDHA	
GDF15: growth and differentiation factor15 that promotes the tissue tolerance (protein, UniProt Q99988 195-308, looked up) Growth/differentiation factor …: ARARNGDHCPLGPGRCCRLHTVRASLEDLGWADWVLSPREVQVTMCIGACPSQFRAANMHAQIKTSLHRLKPDTVPAPCCVPASYNPMVLIQKTDTGVSLQTYDDLLAKDCHCI					did not reduce apoptosis
